{"source": "paper PMC2706832", "about": "(Protein expression and purification, 2009)", "binders": {"B1": {"name": "wild-type CCL3 (ligand, UniProt P10147 24-92, looked up)", "chain": "SLAADTPTACCFSYTSRQIPQNFIADYFETSSQCSKPGVIFLTKRSRQVCADPSEEWVQKYVSDLELSA"}, "B2": {"name": "CCL7 (ligand)", "chain": "not shown"}, "B3": {"name": "CCL14-fluorescein (ligand)", "chain": "GPYHPSECCFTYTTYKIPRQRIMDYYETNSQCSKPGIVFITKRGHSVCTNPSDKWVQDYIKDMKENC(fluorescein‑5‑maleimide)"}}, "key": {"[1]": {"molecular_target": "T1, wild-type CCR1 expressed on HEK293 cells (human, UniProt P32246 1-355)", "T1 sequence (looked up)": "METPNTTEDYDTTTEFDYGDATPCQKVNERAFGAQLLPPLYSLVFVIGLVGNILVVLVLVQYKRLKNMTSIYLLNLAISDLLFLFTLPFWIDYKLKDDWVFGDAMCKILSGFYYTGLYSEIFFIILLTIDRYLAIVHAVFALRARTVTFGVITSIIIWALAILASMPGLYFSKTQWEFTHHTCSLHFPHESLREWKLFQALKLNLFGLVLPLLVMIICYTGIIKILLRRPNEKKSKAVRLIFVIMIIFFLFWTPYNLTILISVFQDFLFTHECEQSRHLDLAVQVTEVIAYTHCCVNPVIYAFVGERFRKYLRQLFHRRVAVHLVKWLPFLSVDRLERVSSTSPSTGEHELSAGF", "test": "radioligand binding"}, "[2]": {"molecular_target": "T1, wild-type CCR1 expressed on HEK293 cells", "test": "cell-based or functional assay"}, "[3]": {"molecular_target": "T2, CCR1 solubilized from HEK293 membranes and purified in detergent/lipid micelles (human, UniProt P32246 1-355)", "T2 sequence (looked up)": "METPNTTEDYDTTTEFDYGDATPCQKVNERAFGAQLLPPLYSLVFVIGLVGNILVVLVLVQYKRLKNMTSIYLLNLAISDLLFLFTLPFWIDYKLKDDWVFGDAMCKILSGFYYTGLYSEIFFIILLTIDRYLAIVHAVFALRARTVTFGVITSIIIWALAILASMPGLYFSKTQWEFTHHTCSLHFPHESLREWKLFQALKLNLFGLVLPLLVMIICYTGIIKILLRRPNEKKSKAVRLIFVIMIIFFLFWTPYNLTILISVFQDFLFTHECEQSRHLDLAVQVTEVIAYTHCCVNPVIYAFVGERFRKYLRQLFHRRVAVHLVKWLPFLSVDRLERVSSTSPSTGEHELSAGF", "test": "fluorescence polarisation"}, "[4]": {"molecular_target": "T2, CCR1 solubilized from HEK293 membranes …", "test": "fluorescence polarisation", "remark": "listed apart in the source"}, "[5]": {"molecular_target": "T2, CCR1 solubilized from HEK293 membranes …", "test": "fluorescence polarisation", "remark": "listed apart in the source"}, "[6]": {"molecular_target": "T2, CCR1 solubilized from HEK293 membranes …", "test": "fluorescence polarisation", "remark": "listed apart in the source"}, "[7]": {"molecular_target": "T2, CCR1 solubilized from HEK293 membranes …", "test": "fluorescence polarisation", "remark": "listed apart in the source"}}, "note": "Like-named read-outs stand apart in the source and are kept apart here. fluorescein‑5‑maleimide = fluorescein-5-maleimide", "data": [{"binder": "B1", "values": [{"measurement": "IC50", "setting": "[1]", "value": 0.9, "unit": "nM"}]}, {"binder": "B2", "values": [{"measurement": "EC50 of calcium mobilization in CCR1-transfected HEK293 cells (FLIPR Calcium 4)", "setting": "[2]", "value": 8, "unit": "nM"}]}, {"binder": "B3", "values": [{"measurement": "Kd", "setting": "[3]", "value": "> 1000", "unit": "nM"}, {"measurement": "Kd", "setting": "[4]", "value": 21, "unit": "nM"}, {"measurement": "Kd", "setting": "[5]", "value": "> 1000", "unit": "nM"}, {"measurement": "Kd", "setting": "[6]", "value": 35, "unit": "nM"}, {"measurement": "Kd", "setting": "[7]", "value": "> 1000", "unit": "nM"}]}]}
